Experimental data: article PMC5171940, “Structure of Crenezumab Complex with Aβ Shows Loss of β-Hairpin” (Scientific Reports, 2016)
Where no end group is shown, it is not given here.

Molecular target: T1, Aβ monomers on the SPR chip: biotinylated Aβ 11–28 (Homo sapiens (from His13), UniProt P05067, also: biotin, position not given here)
T1 construct: amyloid-β peptide, residues 11-28; the methods name only 11–28; also called monomer Aβ chips
T1 chain: EVHHQKLVFFAEDVGSNK
Experiment: SPR; BIAcore T200, single-cycle kinetics; biotinylated Aβ (11–28 or oligomeric 1–42) captured on streptavidin-coupled CM5 chip (100–200 RU); antibody as analyte 0.8–500 nM in HBS-P pH 7.4, 0.15 M NaCl; one-to-one Langmuir model
Conditions: both partners purified

- Kd: 3 to 5 nM
B1: Crenezumab, fully humanized anti-Aβ monoclonal IgG4 (antibody, V domains shown)
VH: EVQLVESGGGLVQPGGSLRLSCAASGFTFSSYGMSWVRQAPGKGLELVASINSNGGSTYYPDSVKGRFTISRDNAKNSLYLQMNSLRAEDTAVYYCASGDYWGQGTTVTVSS
VL: DIVMTQSPLSLPVTPGEPASISCRSSQSLVYSNGDTYLHWYLQKPGQSPQLLIYKVSNRFSGVPDRFSGSGSGTDFTLKISRVEAEDVGVYYCSQSTHVPWTFGQGTKVEIK
notes: crenezumab VH: as the VH of the heavy chain of m1 (PDB 5KNA / 5KMV) but without the T108L change; IgG4 heavy chain constant region; as the light chain of m1 (unaltered crenezumab light chain); IgG4; also called full-length IgG4; copies: 2 + 2
